B1: SR-AB63: cycle 3 antibody, lineage SR-AB26; CDRs SEQ ID NO: 292-297; HCVR SEQ ID NO: 360, LCVR SEQ ID NO: 361 (antibody, V domains shown)
VH: QLQLQESGPGLVKPSETLSLTCTVSGGSIRSSSYYWGWIRQPPGKGLEWIGSISYSATTYYNPSLKSRVTISVDTSKNQFSLKLSSVTAADTAVYYCAGDPSYDSIAGMQVWGQGTTVTVSS
VL: DIQLTQSPSSLSASVGDRVTITCRASQSISSYLNWYQQKPGKAPKLLIYAASNLQSGVPSRFSGSGSGTDFTLTISSLQPEDFATYYCQQSFDWPLTFGGGTKVEIK
B2: SR-AB42: cycle 3 antibody, lineage SR-AB23; CDRs SEQ ID NO: 166-171; HCVR SEQ ID NO: 318, LCVR SEQ ID NO: 319 (antibody, V domains shown)
VH: QVQLVESGGGVVQPGRSLRLSCAASGFTFRSYVMHWVRQAPGKGLEWVAVISHEGSLKYYADSVKGRFTISRDNSKNTLYLQMNSLRAEDTAVYYCARPRIAARRGGFGYWGQGTLVTVSS
VL: NFMLTQPHSVSESPGKTVTISCTRSSGNIDNNYVQWYQQRPGSSPTTVIYEDNQRPSGVPDRFSGSIDSSSNSASLTISGLKTEDEADYYCQSYDYDTQGVVFGGGTKLTVL
B3: SR-AB23: second-round (CDR-H3 mutagenesis) antibody, lineage SR-AB14; CDRs SEQ ID NO: 116-121 (antibody, V domains shown)
VH: QVQLVESGGGVVQPGRSLRLSCAASGFTFRSYVMHWVRQAPGKGLEWVAVISHEGSLKYYADSVKGRFTISRDNSKNTLYLQMNSLRAEDTAVYYCARPRIAARRGGFGYWGQGTLVTVSS
VL: NFMLTQPHSVSESPGKTVTISCTRSSGNIDNNYVQWYQQRPGSSPTTVIYEDNQRPSGVPDRFSGSIDSSSNSASLTISGLKTEDEADYYCQSYDSDNQGVVFGGGTKLTVL
B4: SR-AB22: second-round (CDR-H3 mutagenesis) antibody, lineage SR-AB14; CDRs SEQ ID NO: 108-113 (antibody, V domains shown)
VH: QVQLVESGGGVVQPGRSLRLSCAASGFTFRSYVMHWVRQAPGKGLEWVAVISHEGSLKYYADSVKGRFTISRDNSKNTLYLQMNSLRAEDTAVYYCAVPRIAARRGGFGYWGQGTLVTVSS
VL: NFMLTQPHSVSESPGKTVTISCTRSSGNIDNNYVQWYQQRPGSSPTTVIYEDNQRPSGVPDRFSGSIDSSSNSASLTISGLKTEDEADYYCQSYDSDNQGVVFGGGTKLTVL

What was measured:
[1] = tested on: phosphorylation of Smad2/3 in kidney of Col4a3−/− mice; assay: Alport (Col4a3−/−) mouse model, pSMAD2/3 ELISA on whole kidney lysates; type: in vivo; conditions: single dose 30 mg/kg i.p., 48 hours prior to sacrifice, 11 week old Col4a3−/− mice
Source text: The murine Col4a3 −/− model is an established genetic model of autosomal recessive Alport syndrome. Alport mice lack a functional collagen 4A3 gene (Col4A3−/−) and therefore cannot form normal type IV collagen trimers, which require a3, a4, and a5 chains. Col4a3−/− mice develop fibrosis in the kidney consistent with renal fibrosis in human patients, including interstitial fibrosis and tubular atrophy, and Col4a3−/− mice develop end-stage renal disease (ESRD) between 8 and 30 weeks of age, depending on the genetic background of the mouse. The structural and functional manifestation of renal pathology in Col4a3−/− mice, combined with the progression to ESRD make Col4a3−/− mice an ideal model to understand kidney fibrosis. […]
It is well documented that TGFβ receptor activation leads to a downstream signaling cascade of intracellular events, including phosphorylation of Smad2/3. Therefore, the ability of SR-AB42 and SR-AB63 treatment to inhibit TGFβ signaling was assessed in kidney lysate samples by measuring relative phosphorylation levels of Smad2/3 as assayed by ELISA (Cell Signaling Technologies) according to the manufacturer's instructions. […] FIG. 20B is a graph showing the amount of phosphorylated SMAD2/3 (pSMAD2/3) as determined by ELISA and FIG. 20C is a graph showing the amount of total […] (tSMAD2/3) protein as determined by ELISA.

murine LTBP1-proTGFβ1 = target: T1, murine LTBP1-proTGFβ1 (Mus musculus, UniProt P04202+Q8CG19); assay: Murine LTBP overexpression caga assay: LN229 cells co-transfected with mouse LTBP1 and mouse proTGFβ1, CAGA12 reporter cells; type: cell-based; conditions: overexpressed murine LTBP1-proTGFβ1
T1 construct: expressed in transfected cells; host or cells: LN229
T1 sequence (P04202 30-390): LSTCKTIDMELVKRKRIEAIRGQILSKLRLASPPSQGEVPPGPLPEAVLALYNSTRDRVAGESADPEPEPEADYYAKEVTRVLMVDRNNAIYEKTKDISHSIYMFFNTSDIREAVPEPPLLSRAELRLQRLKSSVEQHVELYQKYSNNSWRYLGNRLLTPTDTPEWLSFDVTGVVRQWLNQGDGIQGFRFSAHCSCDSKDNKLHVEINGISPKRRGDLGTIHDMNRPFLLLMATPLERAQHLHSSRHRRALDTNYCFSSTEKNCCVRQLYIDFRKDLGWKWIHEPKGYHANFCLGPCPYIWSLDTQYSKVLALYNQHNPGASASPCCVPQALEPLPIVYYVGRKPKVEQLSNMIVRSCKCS
T1 sequence (Q8CG19 339-1712 limits assumed): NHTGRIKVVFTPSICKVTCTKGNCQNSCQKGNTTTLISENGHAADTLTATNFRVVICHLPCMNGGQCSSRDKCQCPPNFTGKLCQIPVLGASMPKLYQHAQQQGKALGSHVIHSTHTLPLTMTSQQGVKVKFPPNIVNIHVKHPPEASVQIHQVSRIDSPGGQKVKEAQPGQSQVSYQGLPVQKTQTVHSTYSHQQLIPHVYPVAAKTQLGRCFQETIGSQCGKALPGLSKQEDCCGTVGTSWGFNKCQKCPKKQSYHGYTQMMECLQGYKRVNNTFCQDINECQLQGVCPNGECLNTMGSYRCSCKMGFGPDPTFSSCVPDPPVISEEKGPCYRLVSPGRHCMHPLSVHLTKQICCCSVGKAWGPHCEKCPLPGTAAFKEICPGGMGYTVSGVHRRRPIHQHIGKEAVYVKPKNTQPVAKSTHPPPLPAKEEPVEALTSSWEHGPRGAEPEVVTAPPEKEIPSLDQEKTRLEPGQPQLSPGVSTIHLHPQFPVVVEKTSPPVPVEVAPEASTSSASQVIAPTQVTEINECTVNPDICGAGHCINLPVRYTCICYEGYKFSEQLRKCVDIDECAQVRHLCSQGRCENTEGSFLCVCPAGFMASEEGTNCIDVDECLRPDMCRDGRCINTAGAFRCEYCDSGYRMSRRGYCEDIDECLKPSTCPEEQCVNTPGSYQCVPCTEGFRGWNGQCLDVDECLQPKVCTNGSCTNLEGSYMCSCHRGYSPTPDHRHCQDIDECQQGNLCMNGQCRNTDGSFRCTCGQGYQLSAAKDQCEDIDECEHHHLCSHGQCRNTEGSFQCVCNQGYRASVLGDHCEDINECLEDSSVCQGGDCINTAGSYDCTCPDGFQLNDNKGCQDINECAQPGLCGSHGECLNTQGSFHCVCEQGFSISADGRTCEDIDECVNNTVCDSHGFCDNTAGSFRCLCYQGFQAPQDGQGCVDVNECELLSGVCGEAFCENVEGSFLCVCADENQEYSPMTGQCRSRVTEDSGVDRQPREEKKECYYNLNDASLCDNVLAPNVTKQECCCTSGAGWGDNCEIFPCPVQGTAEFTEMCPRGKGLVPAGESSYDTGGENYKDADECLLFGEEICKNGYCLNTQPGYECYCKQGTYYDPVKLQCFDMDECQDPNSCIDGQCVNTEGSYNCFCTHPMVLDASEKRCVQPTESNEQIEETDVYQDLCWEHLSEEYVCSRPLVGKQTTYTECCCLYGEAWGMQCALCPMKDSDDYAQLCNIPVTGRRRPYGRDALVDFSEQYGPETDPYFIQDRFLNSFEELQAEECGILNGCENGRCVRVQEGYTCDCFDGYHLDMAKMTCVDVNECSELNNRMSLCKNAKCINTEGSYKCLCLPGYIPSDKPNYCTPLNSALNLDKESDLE
Procedure: Additionally, the ability of SR-AB2 to inhibit LTBP1/3-proTGFβ1 in a cell-based assay was also conducted. As essentially described above in Example 2, LN229 cells were seeded on fibronectin pre-coated assay wells and directly transfected with the indicated DNA molecules.
LTBP complex-specific antibodies from the first round of affinity maturation/optimization (i.e., SR-AB14, SR-AB16, SR-AB17, SR-AB18, SR-AB19) were selected for a second round of affinity maturation/optimization (i.e., CDR-H3 mutagenesis as described herein) and particular progeny antibodies (SR-AB20, SR-AB21, SR-AB22, SR-AB23, SR-AB24, SR-AB25, SR-AB26, SR-AB27, SR-AB28, and SR-AB29) were assessed for their ability to inhibit TGFβ activity using LN229 cells. For the assays depicted in FIGS. 13A, 13B, 14A, and 14B the following protocol was used, which is a modified version of Assay II in Example 2. […]
On day 0, prior to cell seeding, assay plates were coated with Fibronectin (LTBP over expression assay only). […] The cell pellet was resuspended in D10 media and viable cells per ml counted. […]

| Molecule | pSmad2/3 signaling (pSMAD2/3:tSMAD2/3) in whole kidney lysates [1] | Inhibition of TGFβ1 activation (TGFβ activity, luciferase) (murine LTBP1-proTGFβ1) |
| --- | --- | --- |
| B1 | significantly inhibit pSmad2/3 signaling | – |
| B2 | significantly inhibit pSmad2/3 signaling | – |
| B3 | – | improved potency |
| B4 | – | improved potency |
